Experimental data published in IntAct's records for PubMed 19037309.

B1: DELLA protein GAI (Arabidopsis thaliana (Mouse-ear cress)), Q9LQT8 (parent)
chain: MKRDHHHHHHQDKKTMMMNEEDDGNGMDELLAVLGYKVRSSEMADVAQKLEQLEVMMSNVQEDDLSQLATETVHYNPAELYTWLDSMLTDLNPPSSNAEYDLKAIPGDAILNQFAIDSASSSNQGGGGDTYTTNKRLKCSNGVVETTTATAESTRHVVLVDSQENGVRLVHALLACAEAVQKENLTVAEALVKQIGFLAVSQIGAMRKVATYFAEALARRIYRLSPSQSPIDHSLSDTLQMHFYETCPYLKFAHFTANQAILEAFQGKKRVHVIDFSMSQGLQWPALMQALALRPGGPPVFRLTGIGPPAPDNFDYLHEVGCKLAHLAEAIHVEFEYRGFVANTLADLDASMLELRPSEIESVAVNSVFELHKLLGRPGAIDKVLGVVNQIKPEIFTVVEQESNHNSPIFLDRFTESLHYYSTLFDSLEGVPSGQDKVMSEVYLGKQICNVVACDGPDRVERHETLSQWRNRFGSAGFAAAHIGSNAFKQASMLLALFNGGEGYRVEESDGCLMLGWHTRPLIATSAWKLSTN
partner: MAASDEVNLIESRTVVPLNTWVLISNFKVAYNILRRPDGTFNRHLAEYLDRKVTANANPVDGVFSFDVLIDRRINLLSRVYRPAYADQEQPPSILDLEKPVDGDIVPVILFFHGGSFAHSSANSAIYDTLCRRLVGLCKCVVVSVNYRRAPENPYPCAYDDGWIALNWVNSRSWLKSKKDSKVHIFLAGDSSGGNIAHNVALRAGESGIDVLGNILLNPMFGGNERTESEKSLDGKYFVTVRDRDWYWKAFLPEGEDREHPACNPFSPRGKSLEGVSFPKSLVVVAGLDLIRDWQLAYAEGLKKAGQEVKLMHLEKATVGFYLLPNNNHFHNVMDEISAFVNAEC

Variants of: B1
Conditions: with gid1a_arath GID1A

effect of a mutation on the interaction | Variant
disrupting interaction | E51R;E54R
disrupting interaction | L31A;V38A
disrupting interaction | Y36A;M43A
decreasing interaction | Y36A
